According to US7807881B2, “Methods to confer herbicide resistance” (Athenix Corp., priority 2003, dated 2010):

B1: GDC-1: Glyphosate resistance-conferring decarboxylase protein (SEQ ID NO:22) with TPP-binding domains, homologous to pyruvate decarboxylase (protein)
chain: MASINIRVQNLEQPMDVAEYLFRRLHEIGIRSIHGLPGDYNPLALDYLPSCGLRWVGSVNELNAAYAADGYARVKQMGALITTFGVGELSAINGVAGAFSEHVPVVHIVGCPSTASQRNGMLLHHTLGNGDFNIFANMSAQISCEVAKLTNPAEIATQIDHALRVCFIRSRPVYIMLPTDMVQAKVEGARLKEPIDLSEPPNDPEKEAYVVDVVLKYLRAAKNPVILVDACAIRHRVLDEVHDLIEKTNLPVFVTPMGKGAVNEEHPTYGGVYAGDGSHPPQVKDMVESSDLILTIGALKSDFNTAGFSYRTSQLNTIDLHSDHCIVKYSTYPGVQMRGVLRQVIKQLDASEINAQPAPVVENEVAKNRDNSPVITQAFFWPRVGEFLKKNDIVITETGTANFGIWDTKFPSGVTALSQVLWGSIGWSVGACQGAVLAAADDNSDRRTILFVGDGSFQLTAQELSTMIRLKLKPIIFVICNDGFTIERFIHGMEAEYNDIANWDFKALVDVFGGSKTAKKFAVKTKDELDSLLTDPTFNAAECLQFVELYMPKEDAPRALIMTAEASARNNAKTE
modifications: Fungal isolate from soil sample
B2: GDC-2: Glyphosate resistance-conferring decarboxylase protein (SEQ ID NO:15) with TPP-binding domains, homologous to acetolactate synthase (protein)
chain: MMLRSRQASKALRALGQARHFTSTTQPAAVQAPRKVASGQRNQATAATATSAAPNVRATPSPAFNAEEQQQQKHSHVQPLVNPQKSDMDESFIGKTGGEIFHEMMLRQGVKHIFGYPGGAILPVFDAIYNSKHFDFILPRHEQGAGHMAEGYARASGKPGVVLVTSGPGATNVVTPMQDALSDGTPLVVFCGQVPTSAIGSDAFQEADVVGISRACTKWNVMVKNVAELPRRINEAFEIATSGRPGPVLVDLPKDVTAGILRRAIPTETALPALPSAASRAAMESSRKHLEHTIKRVADLVNKAKQPVIYAGQGIIQSEGGPELLKELADKASIPVTTTLQGLGGFDELDEKSLHMLGMHGSAYANMAMQEADLIIALGARFDDRVTLNVAKFAPGARAAAAEKRGGIVHFEVMPKNINKVVQATEAVEGNVGSNLKLLLPEVQAKTMDDRKEWFGKINEWKKKWPLSHYERAERHGLIKPQTLIEELSKLTADRKDKTYIATGVGQHQMWTAQHFRWRHPRSMITSGGLGTMGFGLPAAIGAKVAQPDALVFDIDGDASFGMTLTELATAAQFNIGVKVIVLNNEEQGMVTQWQNLFYEDRYAHTHQVNPDFMKLAESMRVQGRRCVDPEDVVDSLKWLINTDGPALLEVVTDKKVPVLPMVPAGSALHEFLVFDGEKDKKRRELMRERTSGLHG
modifications: Fungal isolate from soil sample

What was measured:
[1] = In vitro modification of C14 labeled glyphosate, products analysed by HPLC; format: biochemical; conditions: 100 ng protein, 2 mM glyphosate, Na-Citrate pH 6.0, 1 mM TPP, 2 mM MgCl2, 60 minutes
Experimental: The ability of GDC-1 to modify glyphosate in vitro was tested by incubating GDC-1 with a mixture of radiolabeled and non-labeled glyphosate, and analyzing the reaction products by HPLC.
100 ng of GDC-1 purified protein was incubated with 20,000 cpm of C^14 labeled glyphosate (NaOOCCH2NH^14CH2PO3H2; Sigma catalog #G7014), mixed with unlabelled glyphosate to a final concentration of 2 mM in a reaction buffer of 200 mM Na-Citrate, pH 6.0, 1 mM TPP, 2 mM MgCl2. Reaction was allowed to proceed 60 minutes, then 5 μl was applied to HPLC column (Dionex AminoPac PA10 analytical (and guard) column, anion exchange resin; Dionex Corporation). The column was equilibrated with 150 mM sodium hydroxide. Fractions were eluted with a sodium acetate gradient of 150-300 mM sodium acetate. Single drop (40 uL) fractions were collected, and the radioactivity present in each fraction determined using a 96-well scintillation counter. […] Control experiments lacking purified GDC-1 show no peak at this elution time.

E. coli = assay: Growth of E. coli clones in M9 minimal media containing glyphosate (OD600); format: cell-based; conditions: 37° C., 28 hours after inoculation, triplicate
Experimental: Starter cultures of E. coli containing GDC-1 (full), GDC-2, or vector alone were grown overnight in LB media, diluted 1:1000 into 3 ml M9 minimal media containing 0, 2, 5, 10, 20 and 30 mM glyphosate and grown at 37° C. Each strain was grown in triplicate at each concentration. OD600 was measured at 0, 7, 24, and 28 hours after inoculation.

[2] = Standard pyruvate decarboxylase assay, coupled with alcohol dehydrogenase (absorbance at 340 nm); format: biochemical; conditions: 100 ng of GDC-1 protein; decrease in absorbance at 340 nm
Experimental: 100 ng of GDC-1 protein was tested for activity in a standard pyruvate decarboxylase assay (Gounaris et al. (1971) J. of Biol. Chem. 246:1302-1309). This assay is a coupled reaction where in the first step the pyruvate decarboxylase (PDC) converts pyruvate to acetaldehyde and CO2. The acetaldehyde produced in this reaction is a substrate for alcohol dehydrogenase, which converts acetaldehyde and β-NADH to ethanol and β-NAD. Thus, PDC activity is detected by virtue of utilization of β-NADH as decrease in absorbance at 340 nm in a spectrophotometer. GDC-1 as well as a control enzyme (pyruvate decarboxylase, Sigma) were tested in this assay.

E. coli ΔaroA = assay: Genetic complementation of aroA (EPSP synthase) deletion mutant; format: cell-based; conditions: ΔaroA plated on LB, M63, and M63 with phenylalanine, tryptophan, tyrosine
From the text: The E. coli aroA gene codes for EPSP synthase, the target enzyme for glyphosate. […] However, genes encoding EPSPS activity can restore ability to grow […] upon aroA mutant E. coli strains. Thus, a test for genetic complementation of an aroA mutant is a highly sensitive method to test if a gene is capable of functioning as an EPSPS in E. coli. Such tests for gene function by genetic complementation are known in the art.
A deletion of the aroA gene was created in E. coli XL-1 MRF′ (Stratagene) by PCR/recombination methods known in the art and outlined by Datsenko and Wanner, (2000) Proc. Natl. Acad. Sci. USA 97:6640-6645. This system is based on the Red system that allows for chromosomal disruptions of targeted sequences. A large portion (1067 nt of the 1283 nt) of the aroA coding region was disrupted by the engineered deletion.
The ability of an EPSPS to complement the mutant phenotype of ΔaroA was confirmed. Clone pAX482, an E. coli expression vector containing the wild-type E. coli aroA gene, was transformed into ΔaroA, and transformed cells were selected. These cells (containing a functional aroA gene residing on a plasmid) were then plated on LB media, M63, and M63 with amino acid supplements. […]

[3] = Acetolactate synthase activity (acetoin detection, absorbance 525 nm); format: biochemical; conditions: 50 mM pyruvate, pH 7.0, 2 hours at 37° C.
Experimental: Acetolactate synthases are decarboxylating enzymes that condense two pyruvate molecules to form acetolactate with the release of a CO2 moiety from one of the pyruvate substrates. In the detection of the enzymatic reaction described by Pang and Duggleby (Pang and Duggleby (1999) Biochemistry 18:5222-5231), the product acetolactate is converted to acetoin by incubation with 1% H2SO4 for 15 minutes at 60° C. followed by neutralization with KOH. The acetoin is then detected as described by Westerfeld (Westerfeld (1945) J. Biol. Chem. 161:495-502), using 0.15% creatine and 1.5% alpha-naphthol (dissolved in 2.5 N NaOH). The red colored reaction product is quantified by absorbance at 525 nm.
Samples containing either 5 μg or 10 μg of GDC-2 were incubated in 50 mM pyruvate, 1 mM […] pyrophosphate, 10 mM MgCl2, 0.01 mM Flavin adenine dinucleotide (FAD), 100 mM potassium phosphate buffer pH 7.0 (total reaction volume of 50 μl) for 2 hours at 37° C. The reaction was stopped by the addition of 1 μl of 50% sulfuric acid (H2SO4) and incubated at 60° C. for 15 minutes. The reaction was neutralized by the addition of 30 μl of 1 N KOH followed by the addition of 10 μl of 1.5% creatine and 10 μl of 15% alpha-napthol dissolved in 2.5 N NaOH. The red colored reaction product was quantified by absorbance at 525 nm.

Molecule | Ability to modify glyphosate in vitro [1] | OD600 Mean (E. coli; 0 mM glyphosate) | OD600 Mean (E. coli; 2 mM glyphosate) | OD600 Mean (E. coli; 5 mM glyphosate) | OD600 Mean (E. coli; 10 mM glyphosate) | OD600 Mean (E. coli; 20 mM glyphosate) | Pyruvate decarboxylase activity [2] | Complementation of the aroA mutation (growth of ΔaroA on M63 minimal media) (E. coli ΔaroA) | Absorbance 525 nm (acetolactate synthase activity) ([3]; 5 μg GDC-2) | Absorbance 525 nm (acetolactate synthase activity) ([3]; 10 μg GDC-2)
B1 | converts a portion of the labeled glyphosate to a product | 0.049 | 0.056 | 0.055 | 0.057 | 0.058 | showed activity as a pyruvate decarboxylase | neither GDC-1 nor GDC-2 are capable of complementing the aroA mutation |  | 
B2 |  | 0.050 | 0.054 | 0.056 | 0.056 | 0.058 |  | neither GDC-1 nor GDC-2 are capable of complementing the aroA mutation | 1.99 | 3.13
